Patent publication US20020151683A1 (MOGAM BIOTECHNOLOGY RESEARCH INSTITUTE, published 2002)

Target: T1, HLA-A2.1, a human MHC Class I molecule, at the surface of T2 cell (human)
T1 construct: detected with BB7.2 antibody against HLA-A2.1; also called MHC Class I molecules at the surface of T2 cell
Test: T2 cell MHC stabilisation assay, peptide 1-100 ug/ml, flow cytometry with BB7.2 anti-HLA-A2.1 and FITC anti-mouse Ig
Description: Seven different peptides including the peptides as disclosed in Table 1 above which were derived from HBV X protein were synthesized chemically and dissolved in phosphate buffered saline (hereinafter, referred to as “PBS”). In order to investigate whether the peptides can bind to MHC Class I molecules associated with induction of CTL, each peptide was added to T2 cell line in a concentration of 100, 64, 32, 16, 8, 4, 2 and 1 μg/ml, respectively, and reacted at 37° C. for 4 hours. And then, the cells were washed with PBS to remove unreacted peptides, added with BB7.2 antibody against HLA-A2.1, a human MHC Class I molecule, and reacted at 4° C. for 1 hour. The cells were washed with PBS again, added with fluorescein isothiocyanate (FITC)-conjugated anti-mouse immunoglobulin antibody, and reacted at 4° C. for 1 hour. Then, fluorescence of the cells was determined using fluorocytometer (FACScan, BECTON DICKINSON) and the results were shown in FIG. 1.

| Binder | binding result |
| --- | --- |
| CLFKDWEEL [X6 peptide derived from HBV X protein (positions 115-123)] | binds |
| HLSLRGLFV [X3 peptide derived from HBV X protein (positions 052-060)] | binds |
| EIRLKVFVL [X7 peptide derived from HBV X protein (positions 126-134)] | binds |
